From US20190241648A1 (STATEN BIOTECHNOLOGY B V, published 2019)
Ends that are not written are not given here.

How the values were obtained:
Experiment in all cases: peptide microarray
ApoC3 peptide … F64Q = biological target: T1, ApoC3 peptide … F64Q (human, not fully specified (bridges); also: cyclic constrained)
T1 peptide: DKFSEQWDLDPEV
How it was run: (§1)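 ApoC3 peptide microarrays incubated with antibody samples and then stained with goat anti-human IgG (Fc) DyLight680 plus anti-HA DyLight800 control antibody. Scanned at intensity 7/7 (red/green); a secondary-only prestain checked for background, and framing HA peptides served as quality control.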

ApoC3 peptide … D68S = biological target: T2, ApoC3 peptide … D68S (human, not fully specified; cyclic constrained)
T2 peptide: DKFSEFWDLSPEV
How it was run: as §1

ApoC3 peptide … D68W = ApoC3 peptide … D68W (human, cyclic constrained)
How it was run: as §1

ApoC3 peptide … E70V = biological target: T3, ApoC3 peptide … E70V (human, cyclic constrained)
T3 peptide: DKFSEFWDLDPVV
How it was run: as §1

ApoC3 peptide … F64P = biological target: T4, ApoC3 peptide … F64P (human, not fully specified (bridges); also: cyclic constrained)
T4 peptide: DKFSEPWDLDPEV
How it was run: as §1

ApoC3 peptide … W65L = biological target: T5, ApoC3 peptide … W65L (human, not fully specified (bridges); also: cyclic constrained, ring type and places not given here)
T5 peptide: DKFSEFLDLDPEV
How it was run: as §1

ApoC3 peptide … S62R = ApoC3 peptide … S62R (human, cyclic constrained)
How it was run: as §1

ApoC3 peptide … E70I = biological target: T6, ApoC3 peptide … E70I (human, not fully specified (bridges); also: cyclic constrained)
T6 peptide: DKFSEFWDLDPIV
How it was run: as §1

ApoC3 peptide … D59Y = biological target: T7, ApoC3 peptide … D59Y (human, not fully specified (bridges); also: cyclic constrained)
T7 peptide: YKFSEFWDLDPEV
How it was run: as §1

ApoC3 peptide … E70S = biological target: T8, ApoC3 peptide … E70S (human, cyclic constrained)
T8 peptide: DKFSEFWDLDPSV
How it was run: as §1

ApoC3 peptide … D59C = biological target: T9, ApoC3 peptide … D59C (human, cyclic constrained)
T9 peptide: CKFSEFWDLDPEV
How it was run: as §1

ApoC3 peptide … F64V = biological target: T10, ApoC3 peptide … F64V (human, not fully specified (bridges); also: cyclic constrained)
T10 peptide: DKFSEVWDLDPEV
How it was run: as §1

ApoC3 peptide … L67M = biological target: T11, ApoC3 peptide … L67M (human, not fully specified (bridges); also: cyclic constrained)
T11 peptide: DKFSEFWDMDPEV
How it was run: as §1

ApoC3 peptide … E63G = ApoC3 peptide … E63G (human, cyclic constrained)
How it was run: as §1

ApoC3 peptide … K60T = biological target: T12, ApoC3 peptide … K60T (human, not fully specified (bridges); also: cyclic constrained)
T12 peptide: DTFSEFWDLDPEV
How it was run: as §1

ApoC3 peptide … F61Y = biological target: T13, ApoC3 peptide … F61Y (human, not fully specified (bridges); also: cyclic constrained)
T13 peptide: DKYSEFWDLDPEV
How it was run: as §1

ApoC3 peptide … P69K = biological target: T14, ApoC3 peptide … P69K (human, not fully specified (bridges); also: cyclic constrained)
T14 peptide: DKFSEFWDLDKEV
How it was run: as §1

ApoC3 peptide … E70K = biological target: T15, ApoC3 peptide … E70K (human, not fully specified (bridges); also: cyclic constrained)
T15 peptide: DKFSEFWDLDPKV
How it was run: as §1

ApoC3 peptide … L67D = biological target: T16, ApoC3 peptide … L67D (human, not fully specified (bridges); also: cyclic constrained)
T16 peptide: DKFSEFWDDDPEV
How it was run: as §1

ApoC3 peptide … F61D = biological target: T17, ApoC3 peptide … F61D (human, cyclic constrained)
T17 peptide: DKDSEFWDLDPEV
How it was run: as §1

ApoC3 peptide … S62A = ApoC3 peptide … S62A (human, cyclic constrained)
How it was run: as §1

ApoC3 peptide … D68C = biological target: T18, ApoC3 peptide … D68C (human, not fully specified (bridges); also: cyclic constrained)
T18 peptide: DKFSEFWDLCPEV
How it was run: as §1

ApoC3 peptide … L67Y = biological target: T19, ApoC3 peptide … L67Y (human, not fully specified (bridges); also: cyclic constrained)
T19 peptide: DKFSEFWDYDPEV
How it was run: as §1

ApoC3 peptide … K60M = biological target: T20, ApoC3 peptide … K60M (human, not fully specified (bridges); also: cyclic constrained)
T20 peptide: DMFSEFWDLDPEV
How it was run: as §1

ApoC3 peptide … D66V = biological target: T21, ApoC3 peptide … D66V (human, not fully specified (bridges); also: cyclic constrained)
T21 peptide: DKFSEFWVLDPEV
How it was run: as §1

ApoC3 peptide … L67F = biological target: T22, ApoC3 peptide … L67F (human, not fully specified (bridges); also: cyclic constrained)
T22 peptide: DKFSEFWDFDPEV
How it was run: as §1

ApoC3 peptide … F64G = biological target: T23, ApoC3 peptide … F64G (human, not fully specified (bridges); also: cyclic constrained)
T23 peptide: DKFSEGWDLDPEV
How it was run: as §1

ApoC3 peptide … P69V = ApoC3 peptide … P69V (human, cyclic constrained)
How it was run: as §1

ApoC3 peptide … D59A = biological target: T24, ApoC3 peptide … D59A (human, cyclic constrained)
T24 peptide: AKFSEFWDLDPEV
How it was run: as §1

ApoC3 peptide … P69D = biological target: T25, ApoC3 peptide … P69D (human, not fully specified (bridges); also: cyclic constrained)
T25 peptide: DKFSEFWDLDDEV
How it was run: as §1

ApoC3 peptide … D66I = biological target: T26, ApoC3 peptide … D66I (human, not fully specified (bridges); also: cyclic constrained)
T26 peptide: DKFSEFWILDPEV
How it was run: as §1

ApoC3 peptide … D66L = biological target: T27, ApoC3 peptide … D66L (human, not fully specified (bridges); also: cyclic constrained)
T27 peptide: DKFSEFWLLDPEV
How it was run: as §1

ApoC3 peptide … L67H = biological target: T28, ApoC3 peptide … L67H (human, not fully specified (bridges); also: cyclic constrained)
T28 peptide: DKFSEFWDHDPEV
How it was run: as §1

ApoC3 peptide … F61G = biological target: T29, ApoC3 peptide … F61G (human, cyclic constrained)
T29 peptide: DKGSEFWDLDPEV
How it was run: as §1

ApoC3 peptide … K60N = biological target: T30, ApoC3 peptide … K60N (human, not fully specified (bridges); also: cyclic constrained)
T30 peptide: DNFSEFWDLDPEV
How it was run: as §1

% of binding to wild-type peptide (ApoC3 peptide … F64Q): 133%
% of binding to wild-type peptide (ApoC3 peptide … D68S): 0.57%
% of binding to wild-type peptide (ApoC3 peptide … D68W): 0%
% of binding to wild-type peptide (ApoC3 peptide … E70V): 0.27%
% of binding to wild-type peptide (ApoC3 peptide … F64P): 285%
% of binding to wild-type peptide (ApoC3 peptide … W65L): 18.5%
% of binding to wild-type peptide (ApoC3 peptide … S62R): 37.2%
% of binding to wild-type peptide (ApoC3 peptide … E70I): 1.59%
% of binding to wild-type peptide (ApoC3 peptide … D59Y): 70.2%
% of binding to wild-type peptide (ApoC3 peptide … E70S): 1.05%
% of binding to wild-type peptide (ApoC3 peptide … D59C): 69.2%
% of binding to wild-type peptide (ApoC3 peptide … F64V): 86%
% of binding to wild-type peptide (ApoC3 peptide … L67M): 43.4%
% of binding to wild-type peptide (ApoC3 peptide … E63G): 20.5%
% of binding to wild-type peptide (ApoC3 peptide … K60T): 149%
% of binding to wild-type peptide (ApoC3 peptide … F61Y): 112%
% of binding to wild-type peptide (ApoC3 peptide … P69K): 26.3%
% of binding to wild-type peptide (ApoC3 peptide … E70K): 0%
% of binding to wild-type peptide (ApoC3 peptide … L67D): 2.89%
% of binding to wild-type peptide (ApoC3 peptide … F61D): 31.3%
% of binding to wild-type peptide (ApoC3 peptide … S62A): 97.3%
% of binding to wild-type peptide (ApoC3 peptide … D68C): 5.29%
% of binding to wild-type peptide (ApoC3 peptide … L67Y): 3.08%
% of binding to wild-type peptide (ApoC3 peptide … K60M): 146%
% of binding to wild-type peptide (ApoC3 peptide … D66V): 0%
% of binding to wild-type peptide (ApoC3 peptide … L67F): 26.3%
% of binding to wild-type peptide (ApoC3 peptide … F64G): 168%
% of binding to wild-type peptide (ApoC3 peptide … P69V): 68.3%
% of binding to wild-type peptide (ApoC3 peptide … D59A): 86.4%
% of binding to wild-type peptide (ApoC3 peptide … P69D): 98.5%
% of binding to wild-type peptide (ApoC3 peptide … D66I): 0%
% of binding to wild-type peptide (ApoC3 peptide … D66L): 0%
% of binding to wild-type peptide (ApoC3 peptide … L67H): 7.67%
% of binding to wild-type peptide (ApoC3 peptide … F61G): 25.9%
% of binding to wild-type peptide (ApoC3 peptide … K60N): 139%
B1: anti-ApoC3 antibody 6A6 (antibody, V domains shown)
VH: EVQLVESGGGLVQPGGSLRLSCAASGFTFSSYAGRWVRQVPGKGLEWVSSINAGGGSTSYADSVKGRFTISRDNAKNTLYLQMNSLKPEDTAKYYCTQNSYRYWGQGTRVAVSS
VL: DVVLTQTPGSLSVVPGESASISCKASQSLIHTDGKTYLYWLLQKPGQRPQLLIYQVSSHESGVPDRFTGSGSGTDFTLKISGVKAEDAGVYYCAQATYNPRTFGQGTKLEIK
notes: it was detected with goat anti-human IgG (Fc); also called mAb 6A6; llama antibody 6A6
